Data reported in patent US20200087364A1 (IMMATICS BIOTECHNOLOGIES, published 2020).

What follows are binders tested against T1, HLA-A*01:01 (human) (assay: UV-ligand exchange, anti-b2m ELISA).
T1 construct: MHC class I monomer first loaded with a UV-sensitive peptide (not identified) that is cleaved by UV irradiation and exchanged for the tested peptide; captured on streptavidin plates, detected with anti-β2m; also called peptide-receptive MHC molecules
In short: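 Peptide–MHC complexes made by UV-ligand exchange of a UV-cleavable peptide; exchange yield measured by ELISA on streptavidin-coated plates, samples diluted 100-fold, 1 h 37 °C. Detection with 2 ug/ml HRP anti-β2m, TMB, A450; refolded HLA-A*02:01/MLA-001 monomer standards 15-500 ng/ml.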

Row | peptide exchange yield [%] | Binder
1 | 20 to 50 | SLIIDDTEY
2 | 20 to 50 | SGALDEAAAY
3 | > 75 | VLDPMLDFY
4 | 20 to 50 | VAGLEAGVLY
5 | > 75 | WSDSTSQTIY
6 | 20 to 50 | YADPSANRDLL
7 | 20 to 50 | TAKAPSTEY
8 | > 75 | YTAHVGYSMY
9 | 10 to 20 | YFGNYFTYY
10 | 10 to 20 | YYDLVESTF
11 | 10 to 20 | YYYDTHTNTY
12 | 50 to 75 | VACGNNPVY
13 | 20 to 50 | SRSDFEWVY
14 | 50 to 75 | SSWSAGENDSY
15 | 20 to 50 | TQHFVQENY
16 | > 75 | YMSPDIALLY
17 | 20 to 50 | YEPATMEQY
18 | > 75 | WSDGVPLLY
19 | 10 to 20 | SWSAGENDSYS
20 | 50 to 75 | TSDQLGYSY
21 | > 75 | WSQSSSLMY
22 | 20 to 50 | YPVVVAESMY

More lines, now with the values behind:

Row | Binder | peptide exchange yield [%]
23 | LMEKEDYHSLY | 50 to 75
24 | NTMDAVPRIDHY | > 75
25 | FTAEEGQLY | 50 to 75
26 | RIEAIRAEY | 20 to 50
27 | ETSFSTSHY | > 75
28 | FVDTKVPEH | 20 to 50
29 | FHADSDDESF | 10 to 20
30 | FSEPFHLIVSY | > 75
31 | EIIRYIFAY | 20 to 50
32 | ETEPERHLGSY | 50 to 75
33 | SANALILTY | 20 to 50
34 | IPSFNEMVY | 20 to 50
35 | NSAINPLIY | > 75
36 | AVMEAAFVY | 50 to 75
37 | LTDTGYLQLY | > 75
38 | RSDPGGGGLAYAAY | > 75
39 | DSTDGCLLSF | 20 to 50
40 | HLLSVSLYY | 10 to 20
41 | MTSTEQSLYY | 50 to 75
42 | QVPLDCVLY | 20 to 50
43 | SADHPGLTF | 20 to 50
44 | MSPDIALLYL | 50 to 75
45 | ASDVDTLLK | 50 to 75
46 | PPDHAVGRTKY | 20 to 50
47 | ESAATGQLDY | 50 to 75

Row | Binder | peptide exchange yield [%]
48 | ITVDVRDEF | 10 to 20
49 | RLNGSVASY | 20 to 50
50 | LPDPNVQKY | 20 to 50
51 | QTYMDGLLHY | > 75
52 | AVNALQSVY | 20 to 50
53 | GSNPARYEF | 20 to 50
54 | NSENHILKY | > 75
55 | KSWSQSSSLMY | 50 to 75
56 | NLDPNKIY | 10 to 20
57 | NKEINYFMY | 50 to 75
58 | NSALNPLLY | > 75
59 | RFDDINQEF | 10 to 20
60 | HSDLLEDSKY | 50 to 75
61 | LTDPQVSYV | 50 to 75
62 | ILKGGSGTY | 20 to 50
63 | RFRSITQSYY | 10 to 20
64 | EDDEDEDLY | 50 to 75
65 | RLSTIRHLY | 50 to 75
66 | DTGYLQLYY | > 75
67 | MADRGEARL | 20 to 50
68 | ASSLDSLHY | > 75
69 | MTSTEQSLY | 50 to 75
70 | LTDRDVSFY | > 75
71 | FTTQDELLVY | 50 to 75
72 | QVWGGQPVY | 10 to 20
